One data set has as its target c-Met-Fc (Homo sapiens, UniProt P08581). Kind of data set: Binding ability by surface plasmon resonance (SPR, Biacore). The protocol:
Binding ability of the thioether macrocyclic peptide was evaluated by SPR measurement using Biacore (GE Healthcare).
As a sensor chip, Sensor Chip CM5 was used and an anti-IgG antibody was immobilized on a measurement lane and a control lane by using Human Antibody Capture Kit.
On the measurement lane was immobilized c-Met-Fc, while on the control lane was immobilized Fc protein.
As a running buffer, HBS-EP+ buffer containing 0.1% DMSO was used and a dissociation constant of the thioether macrocyclic peptide was calculated at 5 different concentrations by using the single-kinetics method.
A general note: Surface plasmon resonance follows binding to a sensor surface in real time, without labels.

Data set [1] in a line: Stability of thioether macrocyclic peptide in human serum pool (LC-MS). Type of data set: in vitro ADME. To be noted: human serum pool, 37° C., 1 μM. The protocol:
A DMSO solution of the thioether macrocyclic peptide to be evaluated was dissolved in a human serum pool to give a concentration of 1 μM. The human serum pool containing the thioether macrocyclic peptide thus prepared was incubated at 37° C.
After an elapse of the evaluation time, the human serum pool containing the thioether macrocyclic peptide was placed on ice and a peptide serving as an internal standard was added and mixed to give a concentration of 1 μM. The resulting mixture was added to a solid-phase extraction column (Hyper Sep SPE column, Thermo Scientific), washed with a 5% aqueous acetonitrile solution containing 0.1% TFA, and then purified by eluting with a 70% aqueous acetonitrile solution containing 0.1% TFA.
The molecular weight of the purified product was analyzed using LC-MS and the cleavage site in the serum was identified. In addition, the thioether macrocyclic peptide which had remained without being cleaved was quantitatively determined by comparing an amount relative to the internal standard at every incubation time.

The target of a further data set is T1, c-Met (Homo sapiens, UniProt P08581).
T1 construct: endogenous in cells; host or cells: EHMES-1 (human mesothelioma)
Briefly: Activity of dimeric peptide by ELISA (c-Met phosphorylation level in EHMES-1 cells). Format: cell-based. To be noted: for Activity (c-Met phosphorylation level by ELISA): Table 12, EHMES-1 cells, 10 minutes stimulation; for c-Met phosphorylation: Table 13. The protocol: Each dimeric peptide was added to human EHMES-1 cells and the mixture was incubated for 10 minutes to stimulate the cells.
As a control experiment, a recombinant human HGF protein was added and the mixture was incubated for 10 minutes to stimulate cells.
A phosphorylation level of c-Met was quantitatively analyzed using ELISA.
For orientation: In an ELISA, binding on a coated surface is turned into a signal by an enzyme label.

A further data set concerns human Hcc-827 cells. Briefly: Cell growth of Iressa-inhibited Hcc-827 cells (MTS assay). Type of data set: cell-based. Particulars: Table 13, Hcc-827 cells inhibited by Iressa. The protocol: Dimeric peptides were added to human Hcc-827 cells whose cell growth was inhibited by the addition of Iressa and the resulting mixture was cultured to activate the cell growth ability via a c-Met signaling pathway. The cell count of the thus-cultured cells was quantitatively determined by the assay using MTS (3-(4,5-dimethylthiazol-2-yl)-5-(3carboxymethoxyphenyl)-2-(4-sulphophenyl)-2H-tetrazolium, inner salt).
In general terms: Formazan colour is commonly taken as a measure of viable cells.

For a further data set, the system named is human HuCCT1 cells. Kind of data set: Cell migration of HuCCT1 cells on pore-containing plate. Format: cell-based. To be noted: Table 13. The protocol: In addition, human HuCCT1 cells were seeded on a pore-containing plate and cultured in a medium mixed with each of the dimeric peptides to evaluate activation of cell migration ability.
The test system of data set [2] is human c-Met expressing cells (human SNU-638 cells). Briefly: Localization of fluorescein-modified peptides on c-Met expressing cells (confocal microscopy). Type of data set: cell-based. Particulars: 1 μM fluorescein peptide, FIG. 2A. The protocol: To human c-Met expressing cells (human SNU-638 cells) or human c-Met non-expressing cells (human SNU-216 cells) cultured on a glass-bottom dish were added a RPMI1640 medium containing 1 mg/L of Hoechst 33342, a nuclear staining reagent, an anti-human c-Met antibody, and 1 uM of L5-2-fluorescein, D4-3-fluorescein, D5-4-fluorescein, D4-3NMe-fluorescein, or D4-3scr-fluorescein and the resulting mixture was incubated in 5% CO2 at 37° C. for 5 minutes. Then, a RPMI1640 medium containing an HRP-anti-rat secondary antibody and 1 μM of L5-2-fluorescein, D4-3-fluorescein, D5-4-fluorescein, D4-3NMe-fluorescein, or D4-3scr-fluorescein was added and the resulting mixture was incubated in 5% CO2 at 37° C. for 5 minutes.
The cells were washed three times with a D-MEM medium and were microscopically observed in a new RPMI1640 medium. The localization of the peptide was observed using a confocal fluorescence microscope for the microscopic observation.

Where [3] appears, read: Table 11, monomer and dimeric peptides.

The values below come from patent US9994616B2, “c-Met protein agonist” (The University of Tokyo, priority 2013, dated 2018).

The amount remaining is the share of the starting amount still present when the sample was taken. A higher amount remaining goes with greater stability.

Where a SMILES comes first, the peptide text is derived from it. Bridges are numbered along the chain shown (N, C = ends). Roman numbers before positions name the chains, in order. Where no end group is shown, it is not given here. [ ]: non-standard residue; d: D form. fluorescein = fluorescein fluorescent label attached to the peptide; NMeC = CN[C@@H](CS)C(=O)O; βAla = NCCC(=O)O A value given as a limit tells only on which side of the number the result lay.

Sequence of c-Met-Fc (P08581 with tags, fused parts or gaps limits assumed): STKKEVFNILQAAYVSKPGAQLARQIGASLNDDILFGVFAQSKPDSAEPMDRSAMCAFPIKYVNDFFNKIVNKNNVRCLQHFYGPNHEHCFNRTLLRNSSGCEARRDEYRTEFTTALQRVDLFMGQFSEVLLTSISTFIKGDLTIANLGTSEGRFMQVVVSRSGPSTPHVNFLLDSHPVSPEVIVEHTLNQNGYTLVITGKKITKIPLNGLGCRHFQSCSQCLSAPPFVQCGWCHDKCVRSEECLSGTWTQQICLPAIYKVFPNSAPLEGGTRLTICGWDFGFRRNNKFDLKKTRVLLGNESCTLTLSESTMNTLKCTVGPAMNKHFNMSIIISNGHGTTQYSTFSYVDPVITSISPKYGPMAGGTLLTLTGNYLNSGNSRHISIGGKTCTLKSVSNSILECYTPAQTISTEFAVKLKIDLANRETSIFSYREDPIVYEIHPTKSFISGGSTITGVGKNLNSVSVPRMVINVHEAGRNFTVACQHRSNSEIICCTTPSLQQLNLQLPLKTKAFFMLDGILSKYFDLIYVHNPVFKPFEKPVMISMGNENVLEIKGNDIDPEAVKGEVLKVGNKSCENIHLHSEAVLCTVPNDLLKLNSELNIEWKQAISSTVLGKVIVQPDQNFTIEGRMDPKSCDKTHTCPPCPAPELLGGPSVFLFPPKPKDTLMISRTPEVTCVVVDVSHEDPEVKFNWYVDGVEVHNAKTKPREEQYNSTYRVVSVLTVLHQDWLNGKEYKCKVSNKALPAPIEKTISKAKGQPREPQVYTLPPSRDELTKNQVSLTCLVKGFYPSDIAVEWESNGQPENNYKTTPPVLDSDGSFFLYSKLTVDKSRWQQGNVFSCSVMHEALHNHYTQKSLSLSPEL
Sequence of c-Met-Fc (P08581 25-307 limits assumed): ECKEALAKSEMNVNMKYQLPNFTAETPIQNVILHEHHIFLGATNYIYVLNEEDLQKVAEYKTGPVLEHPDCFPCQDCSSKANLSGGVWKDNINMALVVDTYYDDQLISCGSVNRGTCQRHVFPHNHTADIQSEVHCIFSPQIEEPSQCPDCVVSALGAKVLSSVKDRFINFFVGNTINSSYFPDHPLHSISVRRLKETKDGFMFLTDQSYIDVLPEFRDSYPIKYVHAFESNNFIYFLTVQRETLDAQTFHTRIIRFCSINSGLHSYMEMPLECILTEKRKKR
T1 sequence (P08581 25-1390): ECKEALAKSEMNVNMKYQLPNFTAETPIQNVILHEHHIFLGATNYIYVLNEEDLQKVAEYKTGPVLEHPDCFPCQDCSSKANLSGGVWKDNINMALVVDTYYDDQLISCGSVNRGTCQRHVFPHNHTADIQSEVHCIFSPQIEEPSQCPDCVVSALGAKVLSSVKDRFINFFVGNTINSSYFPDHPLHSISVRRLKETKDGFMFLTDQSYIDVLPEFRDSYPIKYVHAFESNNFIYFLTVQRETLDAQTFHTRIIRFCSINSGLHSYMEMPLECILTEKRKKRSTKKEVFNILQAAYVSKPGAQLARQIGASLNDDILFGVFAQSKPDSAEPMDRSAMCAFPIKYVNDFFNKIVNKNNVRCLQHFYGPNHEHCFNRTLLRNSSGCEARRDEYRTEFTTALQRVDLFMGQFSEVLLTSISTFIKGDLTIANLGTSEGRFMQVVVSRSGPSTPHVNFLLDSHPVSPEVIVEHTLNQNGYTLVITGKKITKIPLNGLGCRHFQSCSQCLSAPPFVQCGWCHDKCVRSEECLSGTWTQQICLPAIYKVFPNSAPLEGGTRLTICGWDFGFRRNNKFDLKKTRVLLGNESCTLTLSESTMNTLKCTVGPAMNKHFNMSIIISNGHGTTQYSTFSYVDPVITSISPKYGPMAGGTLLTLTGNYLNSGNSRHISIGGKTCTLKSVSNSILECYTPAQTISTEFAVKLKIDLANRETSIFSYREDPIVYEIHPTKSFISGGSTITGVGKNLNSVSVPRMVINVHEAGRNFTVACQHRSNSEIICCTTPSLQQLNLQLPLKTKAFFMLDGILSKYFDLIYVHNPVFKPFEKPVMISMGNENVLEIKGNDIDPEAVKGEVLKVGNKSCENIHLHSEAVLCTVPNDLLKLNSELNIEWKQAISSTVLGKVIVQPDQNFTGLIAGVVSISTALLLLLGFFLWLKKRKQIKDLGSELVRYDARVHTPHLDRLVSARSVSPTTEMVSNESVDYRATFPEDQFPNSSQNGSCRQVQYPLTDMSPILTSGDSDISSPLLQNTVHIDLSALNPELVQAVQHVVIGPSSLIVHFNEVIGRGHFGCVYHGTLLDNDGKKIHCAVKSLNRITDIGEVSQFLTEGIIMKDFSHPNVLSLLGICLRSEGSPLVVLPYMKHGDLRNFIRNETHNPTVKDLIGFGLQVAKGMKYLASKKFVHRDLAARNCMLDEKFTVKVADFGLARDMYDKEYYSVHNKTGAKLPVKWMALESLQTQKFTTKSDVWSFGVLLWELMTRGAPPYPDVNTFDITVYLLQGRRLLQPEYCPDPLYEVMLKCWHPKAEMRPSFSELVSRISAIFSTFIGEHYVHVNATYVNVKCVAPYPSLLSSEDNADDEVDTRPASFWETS

In the case of `CC(C)C[C@@H]1NC(=O)[C@H](CC(N)=O)NC(=O)[C@H](Cc2c[nH]c3ccccc23)NC(=O)[C@H](C(C)C)NC(=O)[C@H](CCC(=O)O)NC(=O)[C@H](Cc2c[nH]cn2)NC(=O)[C@H]([C@@H](C)O)NC(=O)[C@H](CCCNC(=N)N)NC(=O)[C@H](CCCNC(=N)N)NC(=O)[C@H](CC(N)=O)NC(=O)[C@H](Cc2ccccc2)NC(=O)[C@H](CCC(N)=O)NC(=O)[C@H](CCCNC(=N)N)NC(=O)[C@@H](Cc2ccc(O)cc2)NC(=O)CSC[C@@H](C(=O)NCC(N)=O)N(C)C(=O)[C@H](CC(=O)O)NC1=O` [Peptide N16] ({CH2CO}-[dY]RQFNRRTHEVWNLD[NMeC]G-NH2; thioether N-16; C-terminus assumed), the kd on c-Met-Fc (Table 8, c-Met-Fc) is given as 1.0 10^−2 s^−1; on c-Met-Fc (Table 9, c-Met-Fc) it was 1.0 10^−2s^−1. Besides, the kon at c-Met-Fc (Table 8, c-Met-Fc, read-out: ka) was found to be 980000 M⁻¹ s⁻¹. In addition, on c-Met-Fc (Table 9, c-Met-Fc), the ka is given as 9.8 10^5 M^−1s^−1. The molecule also registered a share remaining at 1 h, 1 μM in data set [1] (Table 8, 1 h) of 12%. For the same molecule, the amount remaining at 4 h, 1 μM in data set [1] (Table 9, 4 h) is below 12%.

“D4-3 BMH: dimeric peptide: two D4-3 macrocycles linked through C-terminal Cys by BMH linker ({CH2CO}-[dY]RQFNRRTHEVWNLDCGC; thioether N-16; not fully specified (residue 18); also: dimer: two copies joined by BMH, linker at 18 via BMH, other end not in the chain)”: in the data set with c-Met-Fc (setting [3]), the ka is 2.0 10^6 M^−1s^−1 and the kd is reported as 0.091 10^−2 s^−1. Moreover, in the data set with c-Met, the “Activity (c-Met phosphorylation level by ELISA)” value (from here on “Activity”) is reported as “Low” and the c-Met phosphorylation result was “Promote”. Also, in the data set on human Hcc-827 cells, the Cell growth result was “Activate”.

“D4-3 Bis-MAL-PEG11: dimeric peptide: two D4-3 macrocycles linked through C-terminal Cys by Bis-MAL-PEG11 linker ({CH2CO}-[dY]RQFNRRTHEVWNLDCGC; thioether N-16; not fully specified (residue 18); also: dimer: two copies joined by Bis-MAL-PEG11, linker at 18 via Bis-MAL-PEG11, other end not in the chain)”: in the data set with c-Met-Fc (setting [3]), the ka is given as 1.2 10^6 M^−1s^−1 and the kd is given as 0.11 10^−2 s^−1. In addition, in the data set with c-Met, the “Activity” value was “High” and the c-Met phosphorylation result is given as “Promote”. Further, in the data set on human HuCCT1 cells, the Cell migration entry was “Activate”.

For “D4-3-fluorescein: Fluorescein-modified D4-3 peptide, fluorescein on the side chain of C-terminal lysine ({CH2CO}-[dY]RQFNRRTHEVWNLDCGK(fluorescein); thioether N-16)”, in data set [2], the “Binding to c-Met expressing cells” value was “colocalized with and bind to”.

On to “D4-3NMe Bis-MAL-PEG11: dimeric peptide: two D4-3NMe macrocycles linked through C-terminal Cys by Bis-MAL-PEG11 linker ({CH2CO}-[dY]RQFNRRTHEVWNLDCGC; thioether N-16; not fully specified (residue 18); also: two amino acids N-methylated (N6 + N16), dimer: two D4-3NMe macrocycles linked through C-terminal Cys by Bis-MAL-PEG11)”, for which, in the data set with c-Met-Fc (setting [3]), the ka is 0.49 10^6 M^−1s^−1 and the kd was 0.040 10^−2 s^−1. Further, in the data set with c-Met, the “Activity” value is recorded as “High” and the c-Met phosphorylation entry is “Promote”. Further, in the data set on human HuCCT1 cells, the Cell migration result was “Activate”.

As to “D4-3NMe-fluorescein: Fluorescein-modified N-methylated D4-3 peptide ({CH2CO}-[dY]RQFNRRTHEVWNLDCGK(fluorescein); thioether N-16; also: two amino acids N-methylated (N6 + N16))”, the “Binding to c-Met expressing cells” value in data set [2] is “colocalized with and bind to”.

Consider “D4-3scr BMH: dimer of the negative control peptide D4-3scr with BMH linker ({CH2CO}-YERVNHLFRNQTWDRCGC; thioether N-16 (inferred); also: dimer of D4-3scr with BMH linker) [reference compound]”, for which the KD result in the data set with c-Met-Fc (setting [3]) is recorded as “Not binding”. In the data set with c-Met, the “Activity” value was “No” and the c-Met phosphorylation entry is recorded as “Not promote”. Moreover, in the data set with human HuCCT1 cells, the Cell migration result is given as “Not activate”.

For the molecule “D4-3scr-fluorescein: Fluorescein-modified c-Met-unbinding peptide ({CH2CO}-YERVNHLFRNQTWDRCGK(fluorescein); thioether N-16 (inferred)) [reference compound]”, the “Binding to c-Met expressing cells” value in data set [2] is listed as “does not bind”.

Turning to “D5-4 BMH: dimeric peptide: two D5-4 macrocycles linked through C-terminal Cys by BMH linker (peptide 1 {CH2CO}-[dY]WYYAWDQTYKAFPCG; peptide 2 {CH2CO}-[dY]WYYAWDQTYKAFPCG; thioether I:N-I:15, II:N-II:15; not fully specified (C-terminus); also: dimer: two chains joined by BMH through an added C-terminal Cys not in the letters)”, in the data set with c-Met-Fc (setting [3]), the ka is given as 0.046 10^6 M^−1s^−1 and the kd is 0.055 10^−2 s^−1. Besides, in the data set with c-Met, the “Activity” value is reported as “High” and the c-Met phosphorylation entry was “Promote”. In addition, the Cell growth entry with human Hcc-827 cells is on record as “Activate”.

In the case of “D5-4 Bis-MAL-PEG11: dimeric peptide: two D5-4 macrocycles linked through C-terminal Cys by Bis-MAL-PEG11 linker (peptide 1 {CH2CO}-[dY]WYYAWDQTYKAFPCG; peptide 2 {CH2CO}-[dY]WYYAWDQTYKAFPCG; thioether I:N-I:15, II:N-II:15; not fully specified (C-terminus); also: dimer: two chains joined by Bis-MAL-PEG11 through an added C-terminal Cys not in the letters)”, in the data set with c-Met-Fc (setting [3]), the ka is listed as 5.3 10^6 M^−1s^−1 and the kd is given as 1.1 10^−2 s^−1. Also, in the data set with c-Met, the “Activity” value is given as “High” and the c-Met phosphorylation entry was “Promote”. Besides, in the data set with human HuCCT1 cells, the Cell migration entry is “Activate”.

On to “L5-2 BMH: dimeric peptide: two L5-2 macrocycles linked through C-terminal Cys by BMH linker ({CH2CO}-YISWNEFNSPNWRFITCG[βAla]C-NH2; thioether N-17; not fully specified (residue 20); also: dimer: two copies joined by BMH, linker at 20 via BMH, other end not in the chain)”, for which, in the data set with c-Met-Fc (setting [3]), the ka is on record as 0.083 10^6 M^−1s^−1 and the kd is on record as 0.054 10^−2 s^−1. Also, in the data set with c-Met, the “Activity” value is “Low” and the c-Met phosphorylation entry is given as “Promote”. Moreover, the Cell growth entry in the data set on human Hcc-827 cells was “Activate”.

For “L5-2 Bis-MAL-PEG3: dimeric peptide: two L5-2 macrocycles linked through C-terminal Cys by Bis-MAL-PEG3 linker ({CH2CO}-YISWNEFNSPNWRFITCG[βAla]C-NH2; thioether N-17; not fully specified (residue 20); also: dimer: two copies joined by Bis-MAL-PEG3, linker at 20 via Bis-MAL-PEG3, other end not in the chain)”, in the data set with c-Met-Fc (setting [3]), the ka is recorded as 0.22 10^6 M^−1s^−1 and the kd is 0.042 10^−2 s^−1. In the data set with c-Met, the “Activity” value is given as “High” and the c-Met phosphorylation result is listed as “Promote”. Moreover, the Cell migration entry with human HuCCT1 cells is recorded as “Activate”.
